According to patent publication US9725518B2, “Antibodies that bind to Jagged 1” (Cancer Research Technology Limited, priority 2013, dated 2017):

Columns and labels:
[1] = system: MDA-MB-231 spheroids; test: Spheroid assay (3-D growth), MDA-MB-231; format: cell-based, human; conditions: humanised variants 5 μg/ml
From the text: Similar findings were also reported for the Merck anti-N1 mAbs when tested on the LS-1034 cell line. As cell-cell contact is required to activate Notch signalling a spheroid-based 3-D growth model was used to test the ability of the J1 mAbs to block tumour growth. Furthermore, the 3-D model better mimics in vivo conditions including hypoxia and acidosis, allowing evaluation of the mAbs effect in a more realistic setting. Spheroids were generated from MDA-MB-231 breast cancer cells and the ability of different concentrations of the J1-65D mAb to inhibit their growth was evaluated.
Cells were harvested and resuspended in 2.5% Matrigel (BD)-complete DMEM medium. Cell suspension was plated on low-adherence 96-well plates (Corning) (200 μl/well) and spheroids, of approximately fixed cell number (5×10^3 cells for MDA-MB-231 and MDA-MB-468 cell lines; 2×10^3 for MCF7 cells) were then generated by spinning plates at 1800 rpm for 10 minutes. The following day, pictures of the spheroids were taken (day 1) and treatments were added (mAbs were used at 10 μg/ml [5 μg/ml for humanised antibodies] while DBZ was used at the concentration of 100 nM). In some experiments Paclitaxel (1 nM) and Doxorubicin (20 nM) were used in combination with J1-65D mAb treatment. Every 2 days pictures were taken and half of the medium was replaced with fresh one containing mAb/drug. At the end of the experiment, spheroids were either lysed for RNA extraction, were processed and paraffin-embedded for immunohistochemical analysis or were dissociated by pipetting and trypsinization into single cell suspensions for FACS analysis. Spheroid size was evaluated by image analysis using ImageJ software.

[2] = system: J1-induced Notch signalling; test: Luciferase assay, LS174T RBPJ reporter stimulated with J1 protein; format: cell-based, human; conditions: humanised/chimeric mAbs 10 μg/ml, NE3-Fc; DBZ control
Procedure: FIG. 9. […] (A) The colorectal cancer cell line LS174T expressing luciferase under the control of Notch co-factor RBPJ was stimulated with mammalian cell-expressed soluble J1 proteins (NE3-Fc and NE12-Fc) or a control protein in the presence of J1 mAbs (10 μg/ml), and luciferase activity was measured. […] (C) Breast cancer MDA-MB-231 cells were cultured with J1 mAbs. The expression level of the Notch target gene HES1 was measured by qPCR using β2m as the control gene. In all experiments the γ-secretase inhibitor DBZ was used as a positive control for pan Notch inhibition and a control mAb (IgG2b or IgG1) or no treatment (NT) were negative controls.
FIG. 20. Inhibition of human Jagged 1/Notch signalling by humanised and de-immunised J1-mAbs in vitro. The colorectal cancer cell line LS174T expressing luciferase under the control of Notch co-factor RbPJ was stimulated with mammalian cell-expressed recombinant J1 protein (NE3-Fc protein, right bar for each treatment) or a control protein (left bar) in the presence of J1 mAbs (10 μg/ml), and luciferase activity was measured. The parental murine monoclonal antibody (Mo), Murine IgG1, DMSO and DBZ were used as controls.
Having established that the J1 mAbs were able to block the binding of the J1 ligand to its receptor N1 their effect on the activity of the Notch signalling pathway was investigated. The human colorectal cancer cell line LS174T, stably expressing a luciferase reporter gene under control of Notch co-factor RBPJ, was stimulated with two forms of immobilised J1 protein: N-terminus to EGF3 and N-terminus to EGF12. […] Importantly, the best two J1 mAbs (J1-65D and J1-183D) were also tested against other Notch ligands in order to verify ligand specificity.
Prior to experiment, clear bottom 96-well plates (CELLSTAR) wells were coated with either J1-ECD fragments (NE3-Fc and NE12-Fc), other Notch-ligands (J2 or DLL4; both from R&D) or control protein (mlgG2b) at the concentration of 5 μg/ml in 0.1% BSA-PBS (overnight incubation at 4° C.). LS174T colorectal cancer cells, expressing the luciferase gene under control of the Notch cofactor RbPJ, were then plated (4×10^4 cells/well) in the presence of different mAbs (10 μg/ml) or DBZ (100 nM). Luciferase activity was then quantified 24 hours later using the Bright-Glo Luciferase Assay System (Promega).

[3] = Soluble aggregates of transiently expressed antibodies; format: physicochemical; conditions: Protein A purified antibody
From the text: The protein yield of these antibodies, their levels of soluble aggregates and their binding affinity to the immunogen (J1-DE3) are illustrated in (Table 6).

[4] = biological target: T1, N1 binding to cell surface expressed hJ1 (Homo sapiens, UniProt P78504); test: Notch binding blocking assay (FACS): N1 EGF11-13 beads staining human J1-expressing cells; design: key: +: Complete blocking; X: No blocking
T1 construct: cell expressed full length human J1 (hJ1; HEK293 transfectants); expressed in transfected cells; host or cells: HEK293
How it was run: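 E. coli-expressed, refolded human N1 EGF11-13 (411-526), biotinylated on avidin-coated fluorescent beads, stained human J1-transfected HEK293 cells with hybridoma supernatant or purified antibody diluted in HBSS/10% FCS. Purified mAbs titrated in dilution series; bead binding read by flow cytometry.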

[5] = final antibody concentration 0.2 μg/ml
[6] = final antibody concentration 0.4 μg/ml
[7] = final antibody concentration 0.6 μg/ml
[8] = final antibody concentration 1.0 μg/ml

T1 sequence (P78504 34-1218): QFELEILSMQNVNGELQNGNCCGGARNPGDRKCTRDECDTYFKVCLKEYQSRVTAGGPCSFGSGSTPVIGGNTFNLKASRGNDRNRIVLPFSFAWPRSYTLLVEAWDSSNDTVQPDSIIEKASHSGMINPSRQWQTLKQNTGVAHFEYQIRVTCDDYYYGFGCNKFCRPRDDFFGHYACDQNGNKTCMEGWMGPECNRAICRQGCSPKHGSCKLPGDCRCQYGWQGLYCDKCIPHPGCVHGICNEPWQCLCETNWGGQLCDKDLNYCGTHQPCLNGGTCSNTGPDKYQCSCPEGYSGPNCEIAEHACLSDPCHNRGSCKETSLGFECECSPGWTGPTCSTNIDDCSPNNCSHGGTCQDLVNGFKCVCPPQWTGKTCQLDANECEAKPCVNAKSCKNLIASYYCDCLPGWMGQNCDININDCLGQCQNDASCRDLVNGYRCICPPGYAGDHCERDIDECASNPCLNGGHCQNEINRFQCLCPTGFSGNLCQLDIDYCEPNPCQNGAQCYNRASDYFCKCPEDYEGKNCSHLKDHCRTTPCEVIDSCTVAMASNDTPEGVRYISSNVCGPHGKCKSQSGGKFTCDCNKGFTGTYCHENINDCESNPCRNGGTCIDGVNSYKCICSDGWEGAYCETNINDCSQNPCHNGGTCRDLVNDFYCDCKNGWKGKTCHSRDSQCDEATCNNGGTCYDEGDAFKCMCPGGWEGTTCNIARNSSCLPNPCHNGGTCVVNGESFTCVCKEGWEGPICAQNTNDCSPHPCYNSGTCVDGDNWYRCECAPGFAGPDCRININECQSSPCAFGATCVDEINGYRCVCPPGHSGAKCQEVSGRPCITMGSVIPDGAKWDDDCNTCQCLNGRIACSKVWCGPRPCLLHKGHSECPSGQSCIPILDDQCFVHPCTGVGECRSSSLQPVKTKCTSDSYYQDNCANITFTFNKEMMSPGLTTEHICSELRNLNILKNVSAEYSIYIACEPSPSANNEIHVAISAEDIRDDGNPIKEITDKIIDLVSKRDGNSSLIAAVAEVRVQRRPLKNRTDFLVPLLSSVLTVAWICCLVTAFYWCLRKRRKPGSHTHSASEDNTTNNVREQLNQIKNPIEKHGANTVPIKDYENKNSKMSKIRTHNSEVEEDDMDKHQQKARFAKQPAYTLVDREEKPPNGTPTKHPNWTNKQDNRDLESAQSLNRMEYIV

Row | Molecule | Blocking of Notch1 binding to cell surface Jagged 1 [4, 5] | Blocking of Notch1 binding to cell surface Jagged 1 [4, 6] | Blocking of Notch1 binding to cell surface Jagged 1 [4, 7] | Blocking of Notch1 binding to cell surface Jagged 1 [4, 8] | spheroid growth inhibition [1] | inhibition of J1-induced luciferase activity [2] | % soluble aggregate [3] [%]
1 | J1-65D variant 5: humanised/de-immunised J1-65D: J1-65D_VL_2 + J1-65D_VH_1 (antibody, V domains shown) VH: QVQLVQSGAELKKPGSSVKVSCKASGYTFTDYEMHWVRQAPGQGLEWMGAIQPGGGGTAYNQKFKGRVTLTADKSTSTAYMELSSLRSEDTAVYYCTRRGYDDYPFAYWGQGTLVTVSSASTKGP VL: DIQMTQSPSSLSASVGDRVTITCRASGNIHNYLAWYQQKPGKAPKLLIYNAKTLADAVPSRFSGSGSGTDYTLTISSLQPEDFATYYCQHFWSAPWTFGGGTKLEIKRT | X | + (Complete blocking) | + (Complete blocking) | + (Complete blocking) | most comparable to the parental mAb | inhibited as effectively as by the parental murine mAb | 0
2 | J1-65D variant 12: humanised/de-immunised J1-65D: J1-65D_VL_3 + J1-65D_VH_4 (antibody, V domains shown) VH: QVQLVQSGAEVKKPGSSVKVSCKASGYTFTDYEMHWVRQAPGQGLEWMGAIQPGGGGTAYAQKFQGRVTITADKSTSTAYMELSSLRSEDTAVYYCTRRGYDDYPFAYWGQGTLVTVSSASTKGP VL: DIQMTQSPSSLSASVGDRVTITCRASGNIHNYLAWYQQKPGKAPKLLIYNAKTLADAVPSRFSGSGSGTDYTLTISSLQPEDFATYYCQHFWSAPWTFGQGTKLEIKRT | X | + (Complete blocking) | + (Complete blocking) | + (Complete blocking) | slightly reduced ability to inhibit spheroid growth | inhibited as effectively as by the parental murine mAb | 0.47
3 | J1-65D variant 8: humanised/de-immunised J1-65D: J1-65D_VL_2 + J1-65D_VH_4 (antibody, V domains shown) VH: QVQLVQSGAEVKKPGSSVKVSCKASGYTFTDYEMHWVRQAPGQGLEWMGAIQPGGGGTAYAQKFQGRVTITADKSTSTAYMELSSLRSEDTAVYYCTRRGYDDYPFAYWGQGTLVTVSSASTKGP VL: DIQMTQSPSSLSASVGDRVTITCRASGNIHNYLAWYQQKPGKAPKLLIYNAKTLADAVPSRFSGSGSGTDYTLTISSLQPEDFATYYCQHFWSAPWTFGGGTKLEIKRT | X | + (Complete blocking) | + (Complete blocking) | + (Complete blocking) | slightly reduced ability to inhibit spheroid growth | inhibited as effectively as by the parental murine mAb | 0
4 | J1-65D variant 9: humanised/de-immunised J1-65D: J1-65D_VL_3 + J1-65D_VH_1 (antibody, V domains shown) VH: QVQLVQSGAELKKPGSSVKVSCKASGYTFTDYEMHWVRQAPGQGLEWMGAIQPGGGGTAYNQKFKGRVTLTADKSTSTAYMELSSLRSEDTAVYYCTRRGYDDYPFAYWGQGTLVTVSSASTKGP VL: DIQMTQSPSSLSASVGDRVTITCRASGNIHNYLAWYQQKPGKAPKLLIYNAKTLADAVPSRFSGSGSGTDYTLTISSLQPEDFATYYCQHFWSAPWTFGQGTKLEIKRT | X | + (Complete blocking) | + (Complete blocking) | + (Complete blocking) | most comparable to the parental mAb | inhibited as effectively as by the parental murine mAb | 0
5 | J1-183D variant 1: humanised/de-immunised J1-183D: J1-183D_VL_1 + J1-183D_VH_1 (antibody, V domains shown) VH: QVQLVQSGAELKKPGASVKVSCKVSGYAFTDYAIHWIRQAPGQGLEWMGIINTYYGDSKYNQKFKDRVTMTVDKSTSTAYMELSSLRSEDTAVYYCARGYDGFAYWGQGTLVTVSSASTKGP VL: DIQMTQSPSSLSASVGDRVTITCRTSENIYSYLTWYQQKPGKAPKLLVYNAKILAAGVPSRFSGSGSGTDFTLTISSLQPEDFATYYCQHHYDIPWTFGGGTKLEIKRT | X | + (Complete blocking) | + (Complete blocking) | + (Complete blocking) | most comparable efficacy to the original murine antibody | inhibited as effectively as by the parental murine mAb | 3.65

Further lines, with some results ahead:

Row | Blocking of Notch1 binding to cell surface Jagged 1 [4, 5] | Blocking of Notch1 binding to cell surface Jagged 1 [4, 6] | Blocking of Notch1 binding to cell surface Jagged 1 [4, 7] | Blocking of Notch1 binding to cell surface Jagged 1 [4, 8] | Molecule | spheroid growth inhibition [1] | inhibition of J1-induced luciferase activity [2] | % soluble aggregate [3] [%]
6 | X | + (Complete blocking) | + (Complete blocking) | + (Complete blocking) | J1-183D variant 8: humanised/de-immunised J1-183D: J1-183D_VL_2 + J1-183D_VH_4 (antibody, V domains shown) VH: QVQLVQSGAEVKKPGASVKVSCKASGYTFTDYAIHWVRQAPGQGLEWMGIINTYYGDSKYAQKFQGRVTMTVDTSTSTAYMELSSLRSEDTAVYYCARGYDGFAYWGQGTLVTVSSASTKGP VL: DIQMTQSPSSLSASVGDRVTITCRTSENIYSYLTWYQQKPGKAPKLLIYNAKTLASGVPSRFSGSGSGTDFTLTISSLQPEDFATYYCQHHYDIPWTFGGGTKLEIKRT | increasingly less effect | inhibited as effectively as by the parental murine mAb | 0.93
7 | X | + (Complete blocking) | + (Complete blocking) | + (Complete blocking) | J1-183D variant 9: humanised/de-immunised J1-183D: J1-183D_VL_3 + J1-183D_VH_1 (antibody, V domains shown) VH: QVQLVQSGAELKKPGASVKVSCKVSGYAFTDYAIHWIRQAPGQGLEWMGIINTYYGDSKYNQKFKDRVTMTVDKSTSTAYMELSSLRSEDTAVYYCARGYDGFAYWGQGTLVTVSSASTKGP VL: DIQMTQSPSSLSASVGDRVTITCRTSENIYSYLTWYQQKPGKAPKLLIYNAKILDSGVPSRFSGSGSGTDFTLTISSLQPEDFATYYCQHHYDIPWTFGGGTKLEIKRT | increasingly less effect | inhibited as effectively as by the parental murine mAb | 3.49
